Laboratory results from PMC6771821, “Cryo‐EM structure of the MinCD copolymeric filament from Pseudomonas aeruginosa at 3.1 Å resolution” (Febs Letters, 2019).

Target: the molecule itself
Experiment: cryo-EM structure; unsupported MinCD filaments in solution; MinC and MinD each 0.5 mg/mL combined in equal proportion in 20 mM HEPES-Na, 100 mM potassium acetate, 5 mM magnesium acetate, pH 7.0; 1 mM ATP, 15 min at room temperature; helical reconstruction

B1: MinC from Pseudomonas aeruginosa, full-length, His6-tagged (natural protein, UniProt Q9HYZ7 1-263, looked up)
chain: MSQADLLDQDPVFQLKGSMLAVTILELAHNDLARLERQLADKVAQAPNFFRDTPLVMALDKLPEGEGRLDLPALLEVCRRHGLRTLAIRAGREEDIAAAQALDLPVLPPSGARERPLDIKDSAPRKPAEEPSPSAGEARPEPAKAEEKPAEPVSRPTKVVKTPVRGGMQIYAAGGDLIVLAAVSPGAELLADGNIHVYGPMRGRALAGVKGDATARIFCQQLAAELVSIAGNYKVAEDLRRSPQWGKAVHVSLSGDVLNITRL
notes: MinC (septum site-determining protein), Pseudomonas aeruginosa, residues 1-263, cloned into pET-15b; only residues 156-261 (MinC^C) are modelled in the cryo-EM map; the tag was not removed; also called MinC2 (dimer); source: E. coli C41(DE3), purified (HisTrap HP, dialysis); not shown: His6, N-terminal, kept
- binding result: binds
